# Ends that are not written are not given here. * marks the point of attachment. Biotin = O=C1N[C@H]2[C@H](CS[C@H]2CCCCC(=O)*)N1
# T1: ConEn PDZ-GST fusion protein (Homo sapiens (Human), UniProt Q969H4 193-287)
# T1 construct: The label ConEn is not explained in the excerpts
# T1 sequence: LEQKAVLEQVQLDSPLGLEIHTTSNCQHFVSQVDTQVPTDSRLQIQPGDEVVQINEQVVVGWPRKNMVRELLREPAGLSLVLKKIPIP
# T2: GST-PTN-4 PDZ domain fusion protein (Homo sapiens (Human), UniProt P29074 517-605)
# T2 construct: also called protein-tyrosine phosphatase meg1; not shown: glutathione S-transferase encoded by vector pGEX-3X (Pharmacia)
# T2 sequence: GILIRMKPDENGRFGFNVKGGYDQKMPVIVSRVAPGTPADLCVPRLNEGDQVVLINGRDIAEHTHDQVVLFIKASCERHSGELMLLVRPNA
# T3: KIAA0807 (PDZ domain)-GST fusion protein (human, UniProt Q6P0Q8 1104-1192)
# T3 construct: also called K807; KIAA807; not shown: glutathione S-transferase encoded by vector pGEX-3X (Pharmacia)
# T3 sequence: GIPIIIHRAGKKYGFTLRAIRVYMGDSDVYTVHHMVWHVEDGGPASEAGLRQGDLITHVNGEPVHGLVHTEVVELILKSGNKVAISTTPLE
# T4: MINT3 PDZ-GST fusion protein
# T4 construct: Order of GST and PDZ part and limits not seen in the excerpts
# T4 chain: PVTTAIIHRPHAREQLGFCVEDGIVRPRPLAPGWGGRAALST
# T5: K858 PDZ-GST fusion protein (Homo sapiens (Human), UniProt Q8WWI1 1038-1131)
# T5 construct: Order of GST and PDZ part and limits not seen in the excerpts
# T5 sequence: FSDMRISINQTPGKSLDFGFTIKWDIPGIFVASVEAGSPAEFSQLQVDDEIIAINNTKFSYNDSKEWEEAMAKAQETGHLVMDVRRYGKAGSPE
# T6: TAX-IP2L PDZ-GST fusion protein (Homo sapiens (Human), UniProt Q8TF64 107-197)
# T6 construct: Order of GST and PDZ part and limits not seen in the excerpts
# T6 sequence: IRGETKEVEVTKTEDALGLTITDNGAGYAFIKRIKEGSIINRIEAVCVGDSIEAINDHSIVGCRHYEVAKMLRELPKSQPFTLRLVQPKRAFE
# T7: GST-RGS12 PDZ domain fusion protein (human, UniProt O14924 17-85)
# T7 construct: also called human regulator of G-protein signalling 12; not shown: glutathione S-transferase encoded by vector pGEX-3X (Pharmacia)
# T7 sequence: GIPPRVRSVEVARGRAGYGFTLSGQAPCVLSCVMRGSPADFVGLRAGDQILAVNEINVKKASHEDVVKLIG
# T8: GST-AF6 PDZ domain fusion protein (Homo sapiens (Human), UniProt P55196 1001-1093)
# T8 construct: also called af-6 protein; not shown: glutathione S-transferase encoded by vector pGEX-3X (Pharmacia)
# T8 sequence: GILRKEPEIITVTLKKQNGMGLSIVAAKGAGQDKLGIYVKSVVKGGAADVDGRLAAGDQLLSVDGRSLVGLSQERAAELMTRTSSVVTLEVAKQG
# T9: GST-PDZK1 fusion protein (PDZ domains 2-4) (Homo sapiens, UniProt Q5T2W1 134-457)
# T9 construct: not shown: glutathione S-transferase encoded by vector pGEX-3X (Pharmacia)
# T9 sequence: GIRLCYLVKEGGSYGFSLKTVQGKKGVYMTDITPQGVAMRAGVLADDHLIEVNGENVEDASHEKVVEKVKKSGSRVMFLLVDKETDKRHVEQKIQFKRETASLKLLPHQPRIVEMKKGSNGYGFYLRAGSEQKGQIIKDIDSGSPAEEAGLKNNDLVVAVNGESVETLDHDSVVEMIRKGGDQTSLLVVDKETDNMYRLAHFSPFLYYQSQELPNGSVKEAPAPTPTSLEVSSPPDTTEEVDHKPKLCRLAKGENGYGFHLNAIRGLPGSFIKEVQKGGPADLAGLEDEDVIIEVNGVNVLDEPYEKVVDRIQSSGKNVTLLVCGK
# T10: GST-TAX-IP43 PDZ domain fusion protein (human, UniProt Q13884 109-180)
# T10 construct: also called TAX43; not shown: glutathione S-transferase encoded by vector pGEX-3X (Pharmacia)
# T10 sequence: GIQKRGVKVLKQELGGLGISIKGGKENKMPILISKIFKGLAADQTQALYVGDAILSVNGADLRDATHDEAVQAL
# T11: GST-MPP1 PDZ domain fusion protein (Homo sapiens (Human), UniProt Q00013 67-152)
# T11 construct: also called p55; 55 Kd erythrocyte membrane protein; not shown: glutathione S-transferase encoded by vector pGEX-3X (Pharmacia)
# T11 sequence: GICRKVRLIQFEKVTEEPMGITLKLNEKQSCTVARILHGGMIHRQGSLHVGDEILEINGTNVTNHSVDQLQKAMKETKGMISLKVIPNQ
# T12: GST-prIL16 fusion protein (PDZ domains 1-2) (Homo sapiens (Human), UniProt Q14005 1111-1324)
# T12 construct: also called putative interleukin 16 precursor; not shown: glutathione S-transferase encoded by vector pGEX-3X (Pharmacia)
# T12 sequence: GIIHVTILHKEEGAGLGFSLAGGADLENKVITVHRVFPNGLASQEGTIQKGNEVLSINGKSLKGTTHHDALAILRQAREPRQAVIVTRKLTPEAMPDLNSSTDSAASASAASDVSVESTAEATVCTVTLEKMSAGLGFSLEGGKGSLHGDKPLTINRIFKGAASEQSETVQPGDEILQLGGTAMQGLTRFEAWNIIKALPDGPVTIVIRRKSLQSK
# B1: CDw137 (4-1BB ILA) C-terminal peptide AA21L (peptide)
# peptide: Biotin-QEEDGCSCRFPEEEEGGCEL
# modifications: cysteine pairing not given here
# notes: Marked (S), sticky peptide with high background; also called CDw137 (4-1BB ILA) (S)
# B2: V-gated Ca2+ channel C-terminal peptide AA46L (peptide)
# peptide: Biotin-SSGGRARHSYHHPDQDHWC
# notes: Marked (S), sticky peptide with high background; also called V-gated Ca2+ channel (S)
# Target: T1, ConEn PDZ-GST fusion protein
# Experiment: A/G assays
row,binding result,Binder
1,no binding,"Biotin-QATSENGHSARQHVVADTEL [CD34 C-terminal peptide AA7L, biotinylated]"
2,no binding,"Biotin-QFMTADETRNLQNVDMKIGV (also called CD44 (long form)) [CD44 C-terminal peptide AA9L, biotinylated]"
3,no binding,"Biotin-CAISGTSSDRGYGSPRYAEV (also called AA3L-V) [Clasp-4 C-terminal peptide AA3L, biotinylated]"

# Target: T2, GST-PTN-4 PDZ domain fusion protein
# Experiment: A/G assays
row,binding result,Binder
1,no binding,B1
2,no binding,B2
3,no binding,"Biotin-QATSENGHSARQHVVADTEL [CD34 C-terminal peptide AA7L, biotinylated]"
4,no binding,"Biotin-QFMTADETRNLQNVDMKIGV (also called CD44 (long form)) [CD44 C-terminal peptide AA9L, biotinylated]"
5,no binding,"Biotin-CAISGTSSDRGYGSPRYAEV (also called AA3L-V) [Clasp-4 C-terminal peptide AA3L, biotinylated]"

# Target: T3, KIAA0807 (PDZ domain)-GST fusion protein
# Experiment: A/G assays
row,binding result,Binder
1,no binding,B1
2,no binding,B2
3,no binding,"Biotin-QFMTADETRNLQNVDMKIGV (also called CD44 (long form)) [CD44 C-terminal peptide AA9L, biotinylated]"
4,no binding,"Biotin-CAISGTSSDRGYGSPRYAEV (also called AA3L-V) [Clasp-4 C-terminal peptide AA3L, biotinylated]"

# Target: T4, MINT3 PDZ-GST fusion protein
# Experiment: A/G assays
row,binding result,Binder
1,no binding,B1
2,no binding,B2
3,no binding,"Biotin-QATSENGHSARQHVVADTEL [CD34 C-terminal peptide AA7L, biotinylated]"
4,no binding,"Biotin-QFMTADETRNLQNVDMKIGV (also called CD44 (long form)) [CD44 C-terminal peptide AA9L, biotinylated]"
5,no binding,"Biotin-CAISGTSSDRGYGSPRYAEV (also called AA3L-V) [Clasp-4 C-terminal peptide AA3L, biotinylated]"

# Target: T13, K316 PDZ-GST fusion protein (Homo sapiens (Human), UniProt Q14CM0 72-159)
# T13 construct: Order of GST and PDZ part and limits not seen in the excerpts
# Experiment: A/G assays
# T13 sequence (Q14CM0 72-159 limits assumed): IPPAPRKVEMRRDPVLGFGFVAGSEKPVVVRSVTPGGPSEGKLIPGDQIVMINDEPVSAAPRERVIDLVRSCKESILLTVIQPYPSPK
row,binding result,Binder
1,no binding,"Biotin-QATSENGHSARQHVVADTEL [CD34 C-terminal peptide AA7L, biotinylated]"
2,no binding,"Biotin-QFMTADETRNLQNVDMKIGV (also called CD44 (long form)) [CD44 C-terminal peptide AA9L, biotinylated]"
3,no binding,"Biotin-CAISGTSSDRGYGSPRYAEV (also called AA3L-V) [Clasp-4 C-terminal peptide AA3L, biotinylated]"

# Target: T5, K858 PDZ-GST fusion protein
# Experiment: A/G assays
row,binding result,Binder
1,no binding,B1
2,no binding,B2
3,no binding,"Biotin-QATSENGHSARQHVVADTEL [CD34 C-terminal peptide AA7L, biotinylated]"
4,no binding,"Biotin-QFMTADETRNLQNVDMKIGV (also called CD44 (long form)) [CD44 C-terminal peptide AA9L, biotinylated]"
5,no binding,"Biotin-CAISGTSSDRGYGSPRYAEV (also called AA3L-V) [Clasp-4 C-terminal peptide AA3L, biotinylated]"

# Target: T6, TAX-IP2L PDZ-GST fusion protein
# Experiment: A/G assays
row,binding result,Binder
1,no binding,"Biotin-QATSENGHSARQHVVADTEL [CD34 C-terminal peptide AA7L, biotinylated]"
2,no binding,"Biotin-QFMTADETRNLQNVDMKIGV (also called CD44 (long form)) [CD44 C-terminal peptide AA9L, biotinylated]"
3,no binding,"Biotin-CAISGTSSDRGYGSPRYAEV (also called AA3L-V) [Clasp-4 C-terminal peptide AA3L, biotinylated]"

# Target: T14, GST-TIAM1 PDZ domain fusion protein (Homo sapiens (Human), UniProt Q13009 845-931)
# T14 construct: also called TLAM1; T-lymphoma invasion and metastasis inducing protein 1; not shown: glutathione S-transferase encoded by vector pGEX-3X (Pharmacia)
# Experiment: A/G assays
# T14 sequence (Q13009 other isoform, or with tags, fused parts or gaps): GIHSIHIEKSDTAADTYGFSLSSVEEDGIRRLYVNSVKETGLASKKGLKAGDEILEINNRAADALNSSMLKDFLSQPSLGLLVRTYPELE
row,binding result,Binder
1,no binding,B1
2,no binding,B2
3,no binding,"Biotin-QATSENGHSARQHVVADTEL [CD34 C-terminal peptide AA7L, biotinylated]"
4,no binding,"Biotin-QFMTADETRNLQNVDMKIGV (also called CD44 (long form)) [CD44 C-terminal peptide AA9L, biotinylated]"
5,no binding,"Biotin-CAISGTSSDRGYGSPRYAEV (also called AA3L-V) [Clasp-4 C-terminal peptide AA3L, biotinylated]"

# Target: T15, PICK1 PDZ-GST fusion protein (Bos taurus (Bovine), UniProt Q2T9M1 17-105)
# T15 construct: Order of GST and PDZ part and limits not seen in the excerpts
# Experiment: A/G assays
# T15 sequence (Q2T9M1 other isoform, or with tags, fused parts or gaps limits assumed): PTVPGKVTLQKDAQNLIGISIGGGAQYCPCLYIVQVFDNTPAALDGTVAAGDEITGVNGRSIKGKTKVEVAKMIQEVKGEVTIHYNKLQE
row,binding result,Binder
1,no binding,"Biotin-QATSENGHSARQHVVADTEL [CD34 C-terminal peptide AA7L, biotinylated]"
2,no binding,"Biotin-QFMTADETRNLQNVDMKIGV (also called CD44 (long form)) [CD44 C-terminal peptide AA9L, biotinylated]"
3,no binding,"Biotin-CAISGTSSDRGYGSPRYAEV (also called AA3L-V) [Clasp-4 C-terminal peptide AA3L, biotinylated]"

# Target: T16, NSP PDZ-GST fusion protein (Homo sapiens (Human), UniProt Q92743 370-466)
# T16 construct: The label NSP is not explained in the excerpts
# Experiment: A/G assays
# T16 sequence (Q92743 other isoform, or with tags, fused parts or gaps limits assumed): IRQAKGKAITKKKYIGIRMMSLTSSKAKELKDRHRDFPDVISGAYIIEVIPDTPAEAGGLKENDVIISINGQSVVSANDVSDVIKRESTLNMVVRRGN
row,binding result,Binder
1,no binding,"Biotin-QATSENGHSARQHVVADTEL [CD34 C-terminal peptide AA7L, biotinylated]"
2,no binding,"Biotin-QFMTADETRNLQNVDMKIGV (also called CD44 (long form)) [CD44 C-terminal peptide AA9L, biotinylated]"
3,no binding,"Biotin-CAISGTSSDRGYGSPRYAEV (also called AA3L-V) [Clasp-4 C-terminal peptide AA3L, biotinylated]"

# Target: T7, GST-RGS12 PDZ domain fusion protein
# Experiment: A/G assays
row,binding result,Binder
1,no binding,B1
2,no binding,B2
3,no binding,"Biotin-QATSENGHSARQHVVADTEL [CD34 C-terminal peptide AA7L, biotinylated]"
4,no binding,"Biotin-QFMTADETRNLQNVDMKIGV (also called CD44 (long form)) [CD44 C-terminal peptide AA9L, biotinylated]"
5,no binding,"Biotin-CAISGTSSDRGYGSPRYAEV (also called AA3L-V) [Clasp-4 C-terminal peptide AA3L, biotinylated]"

# Target: T8, GST-AF6 PDZ domain fusion protein
# Experiment: A/G assays
row,binding result,Binder
1,no binding,B1
2,no binding,B2
3,no binding,"Biotin-QATSENGHSARQHVVADTEL [CD34 C-terminal peptide AA7L, biotinylated]"
4,no binding,"Biotin-QFMTADETRNLQNVDMKIGV (also called CD44 (long form)) [CD44 C-terminal peptide AA9L, biotinylated]"

# Target: T9, GST-PDZK1 fusion protein (PDZ domains …)
# Experiment: A/G assays
row,binding result,Binder
1,no binding,B1
2,no binding,B2
3,no binding,"Biotin-QATSENGHSARQHVVADTEL [CD34 C-terminal peptide AA7L, biotinylated]"
4,no binding,"Biotin-QFMTADETRNLQNVDMKIGV (also called CD44 (long form)) [CD44 C-terminal peptide AA9L, biotinylated]"
5,no binding,"Biotin-CAISGTSSDRGYGSPRYAEV (also called AA3L-V) [Clasp-4 C-terminal peptide AA3L, biotinylated]"

# Target: T10, GST-TAX-IP43 PDZ domain fusion protein
# Experiment: A/G assays
row,binding result,Binder
1,no binding,B1
2,no binding,B2
3,no binding,"Biotin-QATSENGHSARQHVVADTEL [CD34 C-terminal peptide AA7L, biotinylated]"
4,no binding,"Biotin-QFMTADETRNLQNVDMKIGV (also called CD44 (long form)) [CD44 C-terminal peptide AA9L, biotinylated]"
5,no binding,"Biotin-CAISGTSSDRGYGSPRYAEV (also called AA3L-V) [Clasp-4 C-terminal peptide AA3L, biotinylated]"

# Target: T11, GST-MPP1 PDZ domain fusion protein
# Experiment: A/G assays
row,binding result,Binder
1,no binding,B1
2,no binding,B2
3,no binding,"Biotin-QATSENGHSARQHVVADTEL [CD34 C-terminal peptide AA7L, biotinylated]"
4,no binding,"Biotin-CAISGTSSDRGYGSPRYAEV (also called AA3L-V) [Clasp-4 C-terminal peptide AA3L, biotinylated]"

# Target: T12, GST-prIL16 fusion protein (PDZ domains …)
# Experiment: A/G assays
row,binding result,Binder
1,no binding,B1
2,no binding,B2
3,no binding,"Biotin-QATSENGHSARQHVVADTEL [CD34 C-terminal peptide AA7L, biotinylated]"
4,no binding,"Biotin-CAISGTSSDRGYGSPRYAEV (also called AA3L-V) [Clasp-4 C-terminal peptide AA3L, biotinylated]"
